Values of other authors in PMC8894612.

Molecular target: Regnase-1 (UniProt Q5D1E7)
Assay: Biacore SPR

Sequence of UniProt Q5D1E7 (Q5D1E7 whole entry): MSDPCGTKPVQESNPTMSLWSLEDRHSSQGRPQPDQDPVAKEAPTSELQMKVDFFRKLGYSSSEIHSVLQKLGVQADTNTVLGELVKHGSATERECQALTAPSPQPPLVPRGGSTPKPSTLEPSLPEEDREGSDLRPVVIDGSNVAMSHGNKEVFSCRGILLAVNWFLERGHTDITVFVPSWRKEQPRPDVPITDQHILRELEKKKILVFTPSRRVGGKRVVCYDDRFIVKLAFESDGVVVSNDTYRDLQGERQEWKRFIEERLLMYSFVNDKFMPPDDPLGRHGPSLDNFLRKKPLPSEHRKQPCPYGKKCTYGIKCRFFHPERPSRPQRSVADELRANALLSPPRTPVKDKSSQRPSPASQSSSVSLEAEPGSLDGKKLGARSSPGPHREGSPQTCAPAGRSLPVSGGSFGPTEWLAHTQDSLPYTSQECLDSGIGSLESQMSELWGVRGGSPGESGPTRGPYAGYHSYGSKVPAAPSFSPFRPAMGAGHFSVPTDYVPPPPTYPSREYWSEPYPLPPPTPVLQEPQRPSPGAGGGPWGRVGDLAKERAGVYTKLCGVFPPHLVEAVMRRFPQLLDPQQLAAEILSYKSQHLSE

Kd: 417 nM
Substance: Roquin-1 (from UniProt Q4VGL6)
